Experimental findings from patent US20250000946A1 (WUXI BIOLOGICS IRELAND, published 2025) are described below.

For orientation: EC50 means the concentration at which the effect is half-maximal. Low readings indicate greater potency, high ones weaker potency.

Numbering of substitutions follows the chain as printed. Names may count otherwise.

B1: W3XX115-T2U0.E44-15.uIgG4V1 (Fc fusion)
chain: APTSSSTKKTQLQLEHLLLDLQMILNGINNYKNPKLTRMLTVKFYMPKKATELKHLQCLEEELKPLEEVLNLAQSKNFHLRPRDLISNINVIVLELKGSETTFMCEYADETATIVEFLNRWITFCQSIIESKYGPPCPPCPAPEFLGGPSVFLFPPKPKDTLMISRTPEVTCVVVDVSQEDPEVQFNWYVDGVEVHNAKTKPREEQFNSTYRVVSVLTVLHQDWLNGKEYKCKVSNKGLPSSIEKTISKAKGQPREPQVYTLPPCQEEMTKNQVSLWCLVKGFYPSDIAVEWESNGQPENNYKTTPPVLDSDGSFFLYSRLTVDKSRWQEGNVFSCSVMHEALHNHYTQKSLSLSLG
heavy: EIQLQQSGPELVKPGASVKVSCKASGYSFTDYNMYWVKQSHGESLEWIGYIDPYNGGTRYNQKFKGKATLTVDKSSSTAFMHLNSLTSEDSAVYYCARNGHWDGAWFAYWGQGTLVTVSAASTKGPSVFPLAPCSRSTSESTAALGCLVKDYFPEPVTVSWNSGALTSGVHTFPAVLQSSGLYSLSSVVTVPSSSLGTKTYTCNVDHKPSNTKVDKRVESKYGPPCPPCPAPEFLGGPSVFLFPPKPKDTLMISRTPEVTCVVVDVSQEDPEVQFNWYVDGVEVHNAKTKPREEQFNSTYRVVSVLTVLHQDWLNGKEYKCKVSNKGLPSSIEKTISKAKGQPREPQVCTLPPSQEEMTKNQVSLSCAVKGFYPSDIAVEWESNGQPENNYKTTPPVLDSDGSFFLVSRLTVDKSRWQEGNVFSCSVMHEALHNHYTQKSLSLSLG
light: DIQMNQSPSSLSASLGDTITITCHASQNINVWLSWYQQKPGNIPKLLIYKASNLHTGVPSRFSGSRSGTGFTLTISSLQPEDIATYYCHQGQSYPFTFGSGTKLEIKRTVAAPSVFIFPPSDEQLKSGTASVVCLLNNFYPREAKVQWKVDNALQSGNSQESVTEQDSKDSTYSLSSTLTLSKADYEKHKVYACEVTHQGLSSPVTKSFNRGEC
notes: IL-2 del STLT and F42V; E44 format, IgG4
B2: W3XX115-T2U0.E44-16.uIgG4V1 (Fc fusion)
chain: B1 chain with V42I
heavy: B1 heavy
light: B1 light
notes: IL-2 del STLT and F42I; E44 format, IgG4
B3: W3XX115-T2U0.E44-19.uIgG4V1 (Fc fusion)
chain: B1 chain with V42M
heavy: B1 heavy
light: B1 light
notes: IL-2 del STLT and F42M; E44 format, IgG4
B4: W3XX115-T2U0.E44-38.uIgG4V322 (Fc fusion)
chain: B1 chain with V42F, C125A, F145A, L146A
heavy: B1 heavy with F234A, L235A
light: B1 light
notes: IL-2 del STLT and C125A; E44 format, IgG4 FALA
B5: W3XX115-T2U0.E44-36.uIgG4V322 (Fc fusion)
chain: B1 chain with V42F, S127D, F145A, L146A
heavy: B1 heavy with F234A, L235A
light: B1 light
notes: IL-2 del STLT and S127D; E44 format, IgG4 FALA
B6: W3XX115-T2U0.E44-39.uIgG4V322 (Fc fusion)
chain: B1 chain with V42F, I128A, F145A, L146A
heavy: B1 heavy with F234A, L235A
light: B1 light
notes: IL-2 del STLT and I128A; E44 format, IgG4 FALA
B7: W3XX115-T2U0.E44-34.uIgG4V322 (Fc fusion)
chain: B1 chain with V42F, S127A, F145A, L146A
heavy: B1 heavy with F234A, L235A
light: B1 light
notes: IL-2 del STLT and S127A; E44 format, IgG4 FALA
B8: W3XX115-T2U0.E44-35.uIgG4V322 (Fc fusion)
chain: B1 chain with V42F, S127T, F145A, L146A
heavy: B1 heavy with F234A, L235A
light: B1 light
notes: IL-2 del STLT and S127T; E44 format, IgG4 FALA

The target of the first assay is T1, Human IL-2Rβ/γ (intermediate affinity IL-2 receptor) (human, UniProt P14784 27-551; P31785 23-369).
T1 sequence (looked up) 1: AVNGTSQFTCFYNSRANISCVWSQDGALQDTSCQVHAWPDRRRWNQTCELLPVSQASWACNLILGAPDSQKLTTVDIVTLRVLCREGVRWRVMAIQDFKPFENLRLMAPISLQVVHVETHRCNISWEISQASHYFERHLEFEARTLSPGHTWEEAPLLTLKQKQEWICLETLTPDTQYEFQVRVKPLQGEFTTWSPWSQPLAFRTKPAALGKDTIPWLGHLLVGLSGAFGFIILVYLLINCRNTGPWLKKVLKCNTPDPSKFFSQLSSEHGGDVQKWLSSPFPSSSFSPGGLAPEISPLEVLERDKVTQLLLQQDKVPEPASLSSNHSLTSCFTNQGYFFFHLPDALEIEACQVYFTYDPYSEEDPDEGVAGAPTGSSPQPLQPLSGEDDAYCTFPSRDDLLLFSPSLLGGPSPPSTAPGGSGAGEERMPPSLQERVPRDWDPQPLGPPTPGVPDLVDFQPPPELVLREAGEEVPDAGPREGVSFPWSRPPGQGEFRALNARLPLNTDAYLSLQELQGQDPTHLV
T1 sequence (looked up) 2: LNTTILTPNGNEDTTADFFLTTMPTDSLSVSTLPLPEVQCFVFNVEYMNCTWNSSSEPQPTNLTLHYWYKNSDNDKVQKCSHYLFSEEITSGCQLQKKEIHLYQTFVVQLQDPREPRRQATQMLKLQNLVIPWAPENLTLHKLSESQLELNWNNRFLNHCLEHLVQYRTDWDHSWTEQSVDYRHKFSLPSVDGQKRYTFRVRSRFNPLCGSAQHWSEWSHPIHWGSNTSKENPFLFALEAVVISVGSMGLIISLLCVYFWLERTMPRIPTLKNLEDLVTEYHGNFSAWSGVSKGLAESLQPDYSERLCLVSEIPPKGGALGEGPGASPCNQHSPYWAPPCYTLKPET
Kind of assay: cell-based or functional assay.
Take B1: the “Human CD8+ T Potency EC50 (STAT5 phosphorylation)” value (from here on “Human CD8+ T Potency EC50”) stood at 312 nM and the “Human CD8+ T Potency reduction” value came to 30.3 fold.

On to B2, for which the “Human CD8+ T Potency EC50” value is 251 nM and the “Human CD8+ T Potency reduction” value came out at 24.4 fold.

Turning to B3, the “Human CD8+ T Potency EC50” value came out at 185 nM and the “Human CD8+ T Potency reduction” value is 18 fold.

For another assay, the target named is T2, Human IL-2Rα/β/γ complex (high affinity IL-2 receptor) (human, UniProt P01589 22-272; P14784 27-551; P31785 23-369).
T2 sequence (looked up) 1: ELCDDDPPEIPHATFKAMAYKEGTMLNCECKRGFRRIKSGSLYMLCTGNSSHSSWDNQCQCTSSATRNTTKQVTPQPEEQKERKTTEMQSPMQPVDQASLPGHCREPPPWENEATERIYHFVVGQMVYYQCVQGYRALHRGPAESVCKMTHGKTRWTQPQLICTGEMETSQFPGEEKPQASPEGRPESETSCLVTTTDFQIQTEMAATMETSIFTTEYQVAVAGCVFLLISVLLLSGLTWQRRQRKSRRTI
T2 sequence (looked up) 2: T1 sequence (looked up) 1
T2 sequence (looked up) 3: T1 sequence (looked up) 2
Briefly: cell-based or functional assay.
Take B1: the “Human Treg Potency EC50 (STAT5 phosphorylation)” value (from here on “Human Treg Potency EC50”) amounted to 54.9 nM and the “Human Treg Potency reduction” value is 4620 fold.

Regarding B2, the “Human Treg Potency EC50” value stood at 31.2 nM and the “Human Treg Potency reduction” value came out at 2620 fold.

For B3, the “Human Treg Potency EC50” value came to 0.53 nM and the “Human Treg Potency reduction” value amounted to 44.5 fold.

The next assay concerns the target T1, Human IL-2Rβ/γ (intermediate affinity …). Briefly: cell-based or functional assay. The source holds these as a separate data set.
For the molecule B4, the “Potency in human CD8+ T EC50” value turned out to be 268 nM and the “Potency reduction (CD8+ T)” value is 26.3 fold.

B5: the “Potency in human CD8+ T EC50” value was about 12.2 nM.

For the molecule B6, the “Potency in human CD8+ T EC50” value is 99.9 nM and the “Potency reduction (CD8+ T)” value turned out to be 9.8 fold.

For B7, the “Potency in human CD8+ T EC50” value stood at 180 nM and the “Potency reduction (CD8+ T)” value was 17.7 fold.

As for B8, the “Potency in human CD8+ T EC50” value was found to be 10.7 nM and the “Potency reduction (CD8+ T)” value was 1.1 fold.

The next assay has as its target T2, Human IL-2Rα/β/γ complex (high affinity …). Kind of assay: cell-based or functional assay. This is another data set of the same source.
As to B4, the “Potency in human Treg EC50” value stood at 5 nM and the “Potency reduction (Treg)” value came to 2540 fold.

As to B5, the “Potency in human Treg EC50” value worked out at 0.1 nM and the “Potency reduction (Treg)” value came to 52.2 fold.

As to B6, the “Potency in human Treg EC50” value turned out to be 2 nM and the “Potency reduction (Treg)” value came out at 1020 fold.

B7: the “Potency in human Treg EC50” value stood at 0.21 nM and the “Potency reduction (Treg)” value stood at 104 fold.

On to B8, for which the “Potency in human Treg EC50” value amounted to 0.073 nM and the “Potency reduction (Treg)” value turned out to be 37.1 fold.

In a further assay the target is T1, Human IL-2Rβ/γ (intermediate affinity …). Kind of assay: FACS, HH cells; EC50 fold vs T2U0.E44-1. As for the experimental part:
(§1) Human cutaneous T cell lymphoma HH cells, malignant non-Hodgkin's lymphoma NK92 cells and cutaneous T cell lymphoma MJ20 cells were used for binding assay. They both constitutively express IL-2Rβ (CD122) and […] (CD132), and NK92 and MJ20 also expresses IL-2Rα (CD25). HH, NK92 and MJ20 cells were cultured following ATCC guidance, then transferred to a 96-plate for binding analysis. Cells were incubated with IL-2/Fc fusion proteins at the indicated concentrations for 30 min at 4° C. to avoid internalization. Binding was detected by 2nd antibody of PE-anti-human Fc at 4° C. for another 30 min. The median fluorescence intensity (MFI) on HH and NK92 cells was measured using FACS.
The molecule B1 displayed an Affinity reduction of 18.8 fold.

For B2, the Affinity reduction was 18.9 fold.

Turning to B3, the Affinity reduction came to 15.9 fold.

The next assay shares this target. Kind of assay: FACS, HH cells. The method, then:
as §1
In turn, B5 returned an EC50 of 1320 nM.

Molecule B6 had an EC50 of 355 nM.

As for B7, a half-maximal effect (EC50) was put at 720 nM.

B8 registered an EC50 of 576 nM.

Another assay deals with T2, Human IL-2Rα/β/γ complex (high affinity …). Kind of assay: FACS, NK92 cells. As for the experimental part: as §1
Background: Flow cytometry measures light scatter and fluorescence of single cells or particles in a stream.
Molecule B1 displayed an EC50 of 2740 nM.

Molecule B2 showed an EC50 of about 310 nM.

As to B3, the EC50 amounted to 522 nM.

A further assay has the same target. Kind of assay: FACS, MJ20 cells; EC50 fold vs T2U0.E44-1. The method, then: as §1
B4 showed an Affinity reduction of 4.8 fold.

Molecule B5 came in with an Affinity reduction of 2.4 fold.

In turn, B6 displayed an Affinity reduction of 1770 fold.

Consider B7, for which the Affinity reduction turned out to be 1.5 fold.

On to B8, for which the Affinity reduction is 2.2 fold.

Another assay addresses T1, Human IL-2Rβ/γ (intermediate affinity …). Kind of assay: FACS, HH cells. This is another data set of the same source. The method, then:
as §1
For the molecule B1, the EC50 was about 470 nM.

Consider B2, for which the EC50 turned out to be 472 nM.

In the case of B3, a half-maximal response (EC50) required 398 nM.

The next assay deals with T2, Human IL-2Rα/β/γ complex (high affinity …). Briefly: FACS, MJ20 cells. The method, then: as §1
Take B4: the EC50 amounted to 201 nM.

For B5, the midpoint of the response, the EC50, lay at 98.5 nM.

Consider B6, for which the midpoint of the response, the EC50, lay at 74200 nM.

B7 returned an EC50 of 60.9 nM.

As for B8, it took 92.8 nM to reach a half-maximal effect (EC50).

A further assay has as its target T1, Human IL-2Rβ/γ (intermediate affinity …). Briefly: FACS, HH cells; EC50 fold vs T2U0.E44-1. This is another data set of the same source. The method, then:
as §1
Regarding B4, the Affinity reduction was 400000 fold.

B5 yielded an Affinity reduction of 25.1 fold.

Consider B6, for which the Affinity reduction turned out to be 6.8 fold.

Molecule B7 returned an Affinity reduction of 13.7 fold.

With B8, the Affinity reduction stood at 10.9 fold.

For the next assay, the target named is T2, Human IL-2Rα/β/γ complex (high affinity …). Briefly: FACS, NK92 cells; EC50 fold vs T2U0.E44-1. As for the experimental part:
as §1
B1: the Affinity reduction was found to be 91.6 fold.

B2 came in with an Affinity reduction of 44.3 fold.

In turn, B3 returned an Affinity reduction of 74.6 fold.
